Target: T1, H6-CtBP2 (UniProt P56545 1-445)
T1 construct: also called H6-tagged wt CtBP2; wt CtBP2; source: purified
Assay: pull-down; GST fusion proteins charged on glutathione-agarose beads, incubated with purified H6-CtBP2 or H6-RR-CtBP2 (~0.1 μg) in 200 μl of 25 mM Tris-HCl pH 7.5, 0.25 M NaCl, 0.5% Triton X-100, 0.5 mM DTT for 1 h at 4°C; Western blot with the CtBP2 antibody
Conditions: both partners purified

binding result: binds
B1: GST-ZEB101 (domain or fragment, UniProt P37275-1 680-780, looked up)
chain: PLKMTNSPVLPVGSTTNGSRSSTPSPSPLNLSSSRNTQGYLYTAEGAQEEPQVEPLDLSLPKQQGELLERSTITSVYQNSVYSVQEEPLNLSCAKKEPQKD
notes: ZEB (ZEB1), GenBank NM_030751, aa 680-780; transferred from pGFP-ZEB101 to a pGST vector at XhoI/EcoRI; also called wt ZEB101; source: induced with 1 mM IPTG; lysate loaded onto glutathione-agarose beads
